Measured values: paper PMC6459857

How the values were obtained:
[1] = target: Cdk2 (UniProt P24941); assay: single-molecule fluorescence anisotropy, BODIPY at C93; details: reference: unphosphorylated p27-C93; sites Y88
[2] = target: Cdk2 (UniProt P24941); assay: single-molecule FRET, dyes at C54 and C93; details: reference: unphosphorylated p27-C54-93; sites Y88

| Substance | other: fraction in flexible state [1] | other: fraction in released minor state [2] |
| --- | --- | --- |
| p27Kip1 (p27) 1-198 (from UniProt P46527) pY88-p27-C93 | weaker; reference 33 | – |
| p27Kip1 (p27) 1-198 (from UniProt P46527) pY88-p27-C54-93 | – | weaker; reference 17 |
